Measurements: article PMC5611513 (Frontiers in Cellular and Infection Microbiology, 2017)

B1: B peptides (“L” peptide, TplE 82-108 plus EQ) (peptide)
peptide: Ac-DDLFASIGALWTWAWRGPKARQELLKAEQ-NH2
notes: source: synthetic peptide (solid-phase FMOC, Scilight Biotechnology LLC, HPLC purified)
B2: A peptides (“L” peptide, TplE 82-108 plus EQVEVDD) (peptide)
peptide: Ac-DDLFASIGALWTWAWRGPKARQELLKAEQVEVDD-NH2
notes: as for B1

Molecular target: T1, TplEi (Pseudomonas aeruginosa, UniProt Q9I3K3)
T1 sequence: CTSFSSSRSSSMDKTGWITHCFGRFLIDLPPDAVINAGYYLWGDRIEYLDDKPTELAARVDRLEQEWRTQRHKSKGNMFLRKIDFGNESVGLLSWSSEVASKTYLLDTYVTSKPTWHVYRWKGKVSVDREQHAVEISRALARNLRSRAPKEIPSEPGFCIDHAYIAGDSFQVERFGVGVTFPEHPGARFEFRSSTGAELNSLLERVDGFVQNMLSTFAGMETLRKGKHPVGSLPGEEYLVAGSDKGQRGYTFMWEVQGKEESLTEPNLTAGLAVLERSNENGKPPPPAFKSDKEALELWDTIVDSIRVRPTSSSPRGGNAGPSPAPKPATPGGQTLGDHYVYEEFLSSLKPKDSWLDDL
Experiment: ITC
Details: both partners purified

| Binder | Kd |
| --- | --- |
| B1 | 478 nM |
| B2 | ~125 nM |
